Tests used:
Human soluble IL-6R [1] = target: T1, Human soluble IL-6R (human, UniProt P08887 20-358); test: Biacore T100
T1 construct: Soluble recombinant form; biotinylated in some assays; also called hIL-6R; human IL-6R
T1 sequence (looked up): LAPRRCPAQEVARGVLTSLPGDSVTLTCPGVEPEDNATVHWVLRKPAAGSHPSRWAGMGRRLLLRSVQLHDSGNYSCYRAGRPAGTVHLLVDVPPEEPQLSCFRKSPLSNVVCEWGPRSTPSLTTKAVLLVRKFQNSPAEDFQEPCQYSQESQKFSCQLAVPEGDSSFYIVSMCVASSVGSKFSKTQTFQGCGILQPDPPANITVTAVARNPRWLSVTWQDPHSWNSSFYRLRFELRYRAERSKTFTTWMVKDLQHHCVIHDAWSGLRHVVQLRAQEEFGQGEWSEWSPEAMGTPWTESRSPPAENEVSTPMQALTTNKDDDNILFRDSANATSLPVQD

[2] = target: T2, Human membrane IL-6R on cells (human, UniProt P08887 20-468); test: cell-based or functional assay
T2 sequence (looked up): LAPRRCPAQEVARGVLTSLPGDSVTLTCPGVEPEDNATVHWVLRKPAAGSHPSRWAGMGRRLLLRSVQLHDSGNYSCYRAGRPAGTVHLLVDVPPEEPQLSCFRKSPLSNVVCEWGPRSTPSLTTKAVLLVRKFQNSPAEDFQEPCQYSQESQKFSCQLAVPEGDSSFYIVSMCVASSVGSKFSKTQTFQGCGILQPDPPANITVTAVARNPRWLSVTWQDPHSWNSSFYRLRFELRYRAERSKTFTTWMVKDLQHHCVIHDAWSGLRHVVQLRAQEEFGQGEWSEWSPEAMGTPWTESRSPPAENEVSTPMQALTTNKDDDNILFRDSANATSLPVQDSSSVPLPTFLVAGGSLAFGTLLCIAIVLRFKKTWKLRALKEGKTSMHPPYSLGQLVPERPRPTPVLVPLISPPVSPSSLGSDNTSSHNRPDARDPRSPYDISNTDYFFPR

Cyno plasma sIL-6R [3] = target: T3, Cyno plasma sIL-6R (cynomolgus monkey, UniProt A0A2K5WN54 60-396); test: plasma potency ELISA, cyno plasma
T3 construct: also called cynomolgus sIL-6R
T3 sequence: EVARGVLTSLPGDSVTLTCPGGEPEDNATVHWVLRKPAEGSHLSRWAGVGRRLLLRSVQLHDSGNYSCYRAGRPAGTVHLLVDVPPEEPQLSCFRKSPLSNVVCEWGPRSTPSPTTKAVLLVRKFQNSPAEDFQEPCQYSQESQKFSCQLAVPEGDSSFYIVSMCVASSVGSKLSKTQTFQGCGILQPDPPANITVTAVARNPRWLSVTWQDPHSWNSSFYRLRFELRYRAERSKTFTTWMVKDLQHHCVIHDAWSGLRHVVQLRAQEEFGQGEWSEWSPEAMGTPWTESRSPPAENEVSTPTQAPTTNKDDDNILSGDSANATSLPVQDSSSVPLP

Human soluble IL-6R [4] = target: T1, Human soluble IL-6R; test: Biacore T100, IL-6R captured via mAb BN-12
[5] = target: T2, Human membrane IL-6R on cells; test: flow cytometry, human PBL, monocytes donor 2
Cyno plasma sIL-6R [6] = target: T3, Cyno plasma sIL-6R; test: plasma potency ELISA, human against cyno plasma
Human soluble IL-6R [7] = target: T1, Human soluble IL-6R; test: ELISA, IL6R20A11 on biotinylated human sIL-6R on neutravidin plate
Human plasma sIL-6R = target: T4, Human plasma sIL-6R (human, UniProt P08887 20-355, limits assumed); test: plasma potency assay, human plasma, 2.4 nM IL6; blocked ligand IL-6
T4 construct: also called plasma-derived human IL-6R
T4 sequence (looked up): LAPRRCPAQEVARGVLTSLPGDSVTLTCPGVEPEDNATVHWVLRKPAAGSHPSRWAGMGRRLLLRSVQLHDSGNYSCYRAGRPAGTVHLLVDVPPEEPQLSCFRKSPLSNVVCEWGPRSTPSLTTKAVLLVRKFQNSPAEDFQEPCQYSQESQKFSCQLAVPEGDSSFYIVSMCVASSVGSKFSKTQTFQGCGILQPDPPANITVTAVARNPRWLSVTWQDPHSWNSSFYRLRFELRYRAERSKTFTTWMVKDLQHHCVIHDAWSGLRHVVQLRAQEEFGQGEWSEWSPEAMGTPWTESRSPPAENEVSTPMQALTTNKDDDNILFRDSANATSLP

CNTF-R = target: T5, CNTF-R (UniProt P26992 23-346, limits assumed); test: competitive binding ELISA: IL6R20A11 (0.05 nM) pre-incubated with a series of the receptor; free IL6R20A11 captured on sIL-6R and detected via anti-His
T5 sequence (looked up): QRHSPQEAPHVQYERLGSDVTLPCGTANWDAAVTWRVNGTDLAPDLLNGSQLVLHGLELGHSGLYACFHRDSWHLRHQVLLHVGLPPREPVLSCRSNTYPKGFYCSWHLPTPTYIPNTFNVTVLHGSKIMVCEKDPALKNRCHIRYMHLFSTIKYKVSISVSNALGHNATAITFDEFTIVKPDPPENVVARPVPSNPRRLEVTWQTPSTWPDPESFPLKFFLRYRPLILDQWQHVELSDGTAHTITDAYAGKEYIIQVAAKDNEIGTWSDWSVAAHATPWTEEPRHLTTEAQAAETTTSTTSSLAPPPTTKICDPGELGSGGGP

IL-11R/Fc = target: T6, IL-11R/Fc (UniProt Q14626 23-370); test: as above
T6 construct: not shown: Fc part, not described
T6 sequence (looked up): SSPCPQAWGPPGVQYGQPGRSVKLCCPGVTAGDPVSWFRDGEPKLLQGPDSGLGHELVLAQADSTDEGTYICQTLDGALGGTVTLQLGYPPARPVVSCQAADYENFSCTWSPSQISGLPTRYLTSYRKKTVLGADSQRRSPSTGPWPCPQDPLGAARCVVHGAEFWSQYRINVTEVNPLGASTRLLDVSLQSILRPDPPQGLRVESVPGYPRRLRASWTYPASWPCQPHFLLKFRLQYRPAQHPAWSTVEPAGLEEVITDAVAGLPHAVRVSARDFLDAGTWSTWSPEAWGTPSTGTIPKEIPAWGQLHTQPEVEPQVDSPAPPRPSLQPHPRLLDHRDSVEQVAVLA

Kd (Human soluble IL-6R [1]): 19 pM | IC50 (nM), TF-1 proliferation at 5000 IU/mL IL-6 [2]: 15.2 nM | IC50 (Cyno plasma sIL-6R [3]): 117 pM | kon (Human soluble IL-6R [4]): 1e+06 M⁻¹ s⁻¹ | EC50 [5]: 4780 pM | Ratio (human/cyno) of IC50 (Cyno plasma sIL-6R [6]): 1.69 | EC50 (Human soluble IL-6R [7]): 350 pM | IC50 (Human plasma sIL-6R): 90 pM | binding result (CNTF-R): no binding (tested: 5 nM (log conc 0.7)) | binding result (IL-11R/Fc): no binding (tested: 5 nM (log conc 0.7))
B1: PMP20A11 (VHH)
VHH: EVQLVESGGGLVQPGGSLRLSCAASGSVFKINVMAWYRQAPGKGRELVAGIISGGSTSYADSVKGRFTISRDNAKNTLYLQMNSLRPEDTAVYYCAFITTESDYDLGRRYWGQGTLVTVSS
notes: also called IL6R20A11; IL6R300; not shown: c-myc and (His)6 tags
